Measured values published in IntAct's records for PubMed 21620138.

Target: hif1a_human HIF1A (UniProt Q16665)
Sequence (Q16665 whole entry, looked up): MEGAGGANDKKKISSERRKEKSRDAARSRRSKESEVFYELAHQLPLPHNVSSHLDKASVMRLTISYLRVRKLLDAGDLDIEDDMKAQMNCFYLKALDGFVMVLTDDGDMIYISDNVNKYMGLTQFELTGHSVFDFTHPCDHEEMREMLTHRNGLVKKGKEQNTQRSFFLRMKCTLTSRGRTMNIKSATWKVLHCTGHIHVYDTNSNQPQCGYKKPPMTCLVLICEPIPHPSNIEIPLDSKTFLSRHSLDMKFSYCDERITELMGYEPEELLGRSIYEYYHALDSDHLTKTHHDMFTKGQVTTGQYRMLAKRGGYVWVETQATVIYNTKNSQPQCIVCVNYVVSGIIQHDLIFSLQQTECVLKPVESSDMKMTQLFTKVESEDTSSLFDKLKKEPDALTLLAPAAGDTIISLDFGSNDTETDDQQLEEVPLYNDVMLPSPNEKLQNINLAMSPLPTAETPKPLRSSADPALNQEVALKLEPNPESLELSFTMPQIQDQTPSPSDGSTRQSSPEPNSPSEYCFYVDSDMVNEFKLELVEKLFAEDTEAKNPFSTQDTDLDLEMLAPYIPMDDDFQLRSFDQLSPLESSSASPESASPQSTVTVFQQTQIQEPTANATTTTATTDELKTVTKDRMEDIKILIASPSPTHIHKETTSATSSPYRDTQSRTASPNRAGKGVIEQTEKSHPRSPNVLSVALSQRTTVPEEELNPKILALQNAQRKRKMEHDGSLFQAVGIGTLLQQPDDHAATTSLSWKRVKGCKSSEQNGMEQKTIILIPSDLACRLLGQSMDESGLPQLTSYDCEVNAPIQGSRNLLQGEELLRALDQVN

Chain of Pyruvate kinase PKM (Homo sapiens), P14618-1 P403A;P408A (P14618 whole entry P403A/P408A): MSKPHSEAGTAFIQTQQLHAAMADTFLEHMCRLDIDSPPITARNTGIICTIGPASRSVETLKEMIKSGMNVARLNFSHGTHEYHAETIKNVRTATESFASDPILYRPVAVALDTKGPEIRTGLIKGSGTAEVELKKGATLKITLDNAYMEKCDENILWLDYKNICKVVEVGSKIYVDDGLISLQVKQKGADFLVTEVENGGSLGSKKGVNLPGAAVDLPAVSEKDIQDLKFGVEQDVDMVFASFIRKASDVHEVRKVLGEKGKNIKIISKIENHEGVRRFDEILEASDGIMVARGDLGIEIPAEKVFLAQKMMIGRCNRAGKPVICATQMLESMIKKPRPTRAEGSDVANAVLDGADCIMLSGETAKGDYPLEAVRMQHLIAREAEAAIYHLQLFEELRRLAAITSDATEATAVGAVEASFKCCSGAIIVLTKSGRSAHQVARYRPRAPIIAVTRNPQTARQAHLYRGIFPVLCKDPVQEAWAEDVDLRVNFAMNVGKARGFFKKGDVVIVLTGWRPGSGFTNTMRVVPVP

- effect of a mutation on the interaction: decreasing interaction strength
Substance: Pyruvate kinase PKM (Homo sapiens), P14618-1 P403A;P408A
